The supplement of paper PMC10567573

B1: SERPINB5 (parent)
chain: FPESETKECPFRVNKVCGAACSSK
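Further: lentivirally expressed fusions sorted by FACS into six bins by GFP to DsRed ratio, PSI derived from sequencing read proportions per bin multiplied by bin number.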

Variants of: B1
Test: protein stability index of a GFP-peptide fusion (GPS, HEK-293T) (PSI 1-6); higher = more stable
Conditions: c terminus: a fixed tail appended
In the case of FPESETKECPFRVNKVCGKACSSK, the protein stability index is reported as 2.51.
Work on FPESETKECPFRVNKVCGQACSSK yielded a protein stability index of 2.7.
FPESETKECPFRVNKVCGWACSSK gave a protein stability index of 2.08.
FPESETKECPFRVNKVCGSACSSK gave a protein stability index of 2.92.
FPESETKECPFRVNKVCGVACSSK showed a protein stability index of 2.41.
For FPESETKECPFRVNKVCGHACSSK, the protein stability index was 2.51.
FPESETKECPFRVNKVCGPACSSK gave a protein stability index of 2.08.
Variant FPESETKECPFRVNKVCGTACSSK has a protein stability index of 2.62.
Variant FPESETKECPFRVNKVCGMACSSK has a protein stability index of 2.36.
Variant FPEEETKECPFRVNKVCGAACSSK has a protein stability index of 4.53.
Variant FPEFETKECPFRVNKVCGAACSSK has a protein stability index of 2.54.
For FPEGETKECPFRVNKVCGAACSSK, the protein stability index was 2.25.
FPERETKECPFRVNKVCGAACSSK showed a protein stability index of 2.76.
With FPEIETKECPFRVNKVCGAACSSK the protein stability index was 2.72.
With FPEWETKECPFRVNKVCGAACSSK the protein stability index was 2.03.
For FPESETKECPFRVNKVCGAQCSSK, the protein stability index was 2.09.
FPESETKECPFRVNKVCGANCSSK showed a protein stability index of 3.18.
With FPESETKECPFRVNKVCGAYCSSK the protein stability index was 2.27.
For FPESETKECPFRVNKVCGAFCSSK, the protein stability index was 1.95.
Variant FPESETKECPFRVNKVCGAACSPK has a protein stability index of 2.39.
In the case of FPESETKECPFRVNKVCGAACSMK, the protein stability index is reported as 2.39.
For FPESETKECPFRVNKVCGAACSRK, the protein stability index was 2.02.
Variant FPESETKECPFRVNKVCGAACSYK has a protein stability index of 2.29.
Variant FPESETKECPFRVNKVCGAACSGK has a protein stability index of 2.4.
FPESETKECPFRVNKVCGAACSTK gave a protein stability index of 2.19.
FPESETKECPFRVNKVCGAACSNK gave a protein stability index of 2.96.
Variant FPESETKECPFRVNKVCGAACSDK has a protein stability index of 2.78.
With FPESETKECPFRVRKVCGAACSSK the protein stability index was 2.17.
FPESETKECPFRVYKVCGAACSSK showed a protein stability index of 2.19.
Work on FPESETKECPFRVSKVCGAACSSK yielded a protein stability index of 2.45.
FPESETKECPFRVMKVCGAACSSK showed a protein stability index of 2.98.
In the case of FPYSETKECPFRVNKVCGAACSSK, the protein stability index is reported as 1.53.
In the case of FPHSETKECPFRVNKVCGAACSSK, the protein stability index is reported as 1.55.
FPCSETKECPFRVNKVCGAACSSK gave a protein stability index of 2.4.
Variant FPISETKECPFRVNKVCGAACSSK has a protein stability index of 1.86.
For FPESETKECPFMVNKVCGAACSSK, the protein stability index was 2.86.
FPESETKECPFIVNKVCGAACSSK gave a protein stability index of 2.57.
Work on FPESETKECPFQVNKVCGAACSSK yielded a protein stability index of 3.36.
In the case of FPESETKECPFFVNKVCGAACSSK, the protein stability index is reported as 3.56.
FPESETKECPFWVNKVCGAACSSK gave a protein stability index of 2.87.
In the case of FPESETKECPFEVNKVCGAACSSK, the protein stability index is reported as 4.59.
In the case of FPESETKECPFYVNKVCGAACSSK, the protein stability index is reported as 3.43.
For FPESETKECPFKVNKVCGAACSSK, the protein stability index was 3.57.
With FPESETKECPFCVNKVCGAACSSK the protein stability index was 4.62.
FPESETKECPFTVNKVCGAACSSK showed a protein stability index of 3.84.
FPESETKECPKRVNKVCGAACSSK gave a protein stability index of 5.11.
For FPESETKECPWRVNKVCGAACSSK, the protein stability index was 2.16.
For FPESETKECPSRVNKVCGAACSSK, the protein stability index was 5.28.
With FPESETKECPDRVNKVCGAACSSK the protein stability index was 5.06.
In the case of FLESETKECPFRVNKVCGAACSSK, the protein stability index is reported as 3.57.
FQESETKECPFRVNKVCGAACSSK gave a protein stability index of 3.73.
In the case of FVESETKECPFRVNKVCGAACSSK, the protein stability index is reported as 2.13.
With FWESETKECPFRVNKVCGAACSSK the protein stability index was 3.64.
FEESETKECPFRVNKVCGAACSSK showed a protein stability index of 4.59.
FTESETKECPFRVNKVCGAACSSK gave a protein stability index of 2.26.
Variant FPESETKGCPFRVNKVCGAACSSK has a protein stability index of 1.9.
Work on FPESETKPCPFRVNKVCGAACSSK yielded a protein stability index of 2.29.
FPESETKFCPFRVNKVCGAACSSK showed a protein stability index of 1.97.
Variant FPESETKNCPFRVNKVCGAACSSK has a protein stability index of 2.17.
FPESETKCCPFRVNKVCGAACSSK showed a protein stability index of 2.23.
Variant FPESETKVCPFRVNKVCGAACSSK has a protein stability index of 2.59.
FPESETKWCPFRVNKVCGAACSSK gave a protein stability index of 1.66.
Work on FPESETKECPFRINKVCGAACSSK yielded a protein stability index of 2.6.
With FPESETKECPFRLNKVCGAACSSK the protein stability index was 3.19.
With FPESETKECPFRRNKVCGAACSSK the protein stability index was 3.59.
FPESETKECPFRGNKVCGAACSSK gave a protein stability index of 3.81.
With FPESETKECPFRFNKVCGAACSSK the protein stability index was 2.59.
With FPESETKECPFRDNKVCGAACSSK the protein stability index was 4.31.
FPESETKECPFRSNKVCGAACSSK gave a protein stability index of 3.66.
For FPESETKECPFRANKVCGAACSSK, the protein stability index was 3.14.
In the case of FPESETKECPFRWNKVCGAACSSK, the protein stability index is reported as 2.19.
FPESETKECPFRTNKVCGAACSSK showed a protein stability index of 3.54.
Variant FPESETKECPFRMNKVCGAACSSK has a protein stability index of 3.1.
FPESETVECPFRVNKVCGAACSSK gave a protein stability index of 2.53.
FPESETRECPFRVNKVCGAACSSK gave a protein stability index of 2.88.
FPESETSECPFRVNKVCGAACSSK showed a protein stability index of 2.69.
FPESETYECPFRVNKVCGAACSSK showed a protein stability index of 1.97.
In the case of FPESETFECPFRVNKVCGAACSSK, the protein stability index is reported as 1.89.
For FPESETDECPFRVNKVCGAACSSK, the protein stability index was 3.22.
FPESETHECPFRVNKVCGAACSSK showed a protein stability index of 3.36.
With FPESETPECPFRVNKVCGAACSSK the protein stability index was 2.76.
Variant FPESMTKECPFRVNKVCGAACSSK has a protein stability index of 2.35.
FPESLTKECPFRVNKVCGAACSSK showed a protein stability index of 1.78.
With FPESRTKECPFRVNKVCGAACSSK the protein stability index was 1.9.
Work on FPESATKECPFRVNKVCGAACSSK yielded a protein stability index of 1.88.
With FPESCTKECPFRVNKVCGAACSSK the protein stability index was 1.72.
Variant FPESYTKECPFRVNKVCGAACSSK has a protein stability index of 1.87.
FPESPTKECPFRVNKVCGAACSSK gave a protein stability index of 3.05.
Work on FPESNTKECPFRVNKVCGAACSSK yielded a protein stability index of 1.89.
FPESQTKECPFRVNKVCGAACSSK showed a protein stability index of 1.4.
FPESETKEWPFRVNKVCGAACSSK gave a protein stability index of 2.07.
Work on FPESETKEGPFRVNKVCGAACSSK yielded a protein stability index of 2.82.
Variant FPESETKEPPFRVNKVCGAACSSK has a protein stability index of 4.51.
In the case of FPESETKESPFRVNKVCGAACSSK, the protein stability index is reported as 2.15.
